Source: paper PMC11944484, “Metronidazole Activation by a Deeply Entangled Dimeric Malic Enzyme in Entamoeba histolytica” (Pathogens, 2025)

Key:
[1] = molecular target: T1, EhME (Entamoeba histolytica malic enzyme; rEhME) (Entamoeba histolytica, UniProt Q9NH04); experiment: NADPH formation at […] nm, inhibition kinetics; format: biochemical
T1 construct: gene CL6EHI_044970; full-length ORF in pQE30, N-terminal His6 tag (cleavage not mentioned), expressed in E. coli M15; Ni-NTA and Superdex 200; apparent 53 kDa; entangled homodimer with composite active site
T1 sequence (Q9NH04 1-487): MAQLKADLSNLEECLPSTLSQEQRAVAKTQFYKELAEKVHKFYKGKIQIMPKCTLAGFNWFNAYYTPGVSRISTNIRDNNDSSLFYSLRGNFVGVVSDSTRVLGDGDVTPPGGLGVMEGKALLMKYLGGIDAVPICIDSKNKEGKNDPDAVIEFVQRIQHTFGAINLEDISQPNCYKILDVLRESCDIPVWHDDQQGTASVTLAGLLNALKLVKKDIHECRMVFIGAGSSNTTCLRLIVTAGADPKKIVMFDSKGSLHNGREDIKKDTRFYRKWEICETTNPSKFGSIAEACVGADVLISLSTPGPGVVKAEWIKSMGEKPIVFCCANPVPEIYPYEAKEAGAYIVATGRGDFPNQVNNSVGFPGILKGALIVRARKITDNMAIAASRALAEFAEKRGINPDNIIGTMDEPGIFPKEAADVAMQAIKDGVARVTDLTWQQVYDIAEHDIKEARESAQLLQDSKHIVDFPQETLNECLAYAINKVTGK

[2] = substrate: NC(=O)c1ccc[n+]([C@@H]2O[C@H](COP(=O)(O)OP(=O)(O)OC[C@H]3O[C@@H](n4cnc5c(N)ncnc54)[C@H](OP(=O)(O)O)[C@@H]3O)[C@@H](O)[C@H]2O)c1; experiment: purified protein; format: biochemical, Entamoeba histolytica; details: L-malate at saturation, NADP+ varied 0.1-0.5 mM, 5 mM MnCl2, 50 mM Tris-Cl pH 7.4, 30 °C, apparent Km, varied: cofactor
[3] = substrate: O=C(O)C[C@H](O)C(=O)O; experiment: purified protein; format: biochemical, Entamoeba histolytica; details: NADP+ at saturation, L-malate varied 5-15 mM, 5 mM MnCl2, 50 mM Tris-Cl pH 7.4, 30 °C, apparent Km
[4] = molecular target: the molecule itself; experiment: SEC; gel filtration chromatography of purified EhME; conditions of the analysis not told apart from the purification step (Superdex 200, 10 mM Tris, 150 mM NaCl, 10 mM DTT, pH 8.0)

Nc1ncnc2c1ncn2[C@@H]1O[C@H](COP(=O)(O)OP(=O)(O)OP(=O)(O)O)[C@@H](O)[C@H]1O [ATP]
Ki [1]: 650 µM

B1: Entamoeba histolytica malic enzyme (enzyme, UniProt Q9NH04 1-487, looked up)
chain: MAQLKADLSNLEECLPSTLSQEQRAVAKTQFYKELAEKVHKFYKGKIQIMPKCTLAGFNWFNAYYTPGVSRISTNIRDNNDSSLFYSLRGNFVGVVSDSTRVLGDGDVTPPGGLGVMEGKALLMKYLGGIDAVPICIDSKNKEGKNDPDAVIEFVQRIQHTFGAINLEDISQPNCYKILDVLRESCDIPVWHDDQQGTASVTLAGLLNALKLVKKDIHECRMVFIGAGSSNTTCLRLIVTAGADPKKIVMFDSKGSLHNGREDIKKDTRFYRKWEICETTNPSKFGSIAEACVGADVLISLSTPGPGVVKAEWIKSMGEKPIVFCCANPVPEIYPYEAKEAGAYIVATGRGDFPNQVNNSVGFPGILKGALIVRARKITDNMAIAASRALAEFAEKRGINPDNIIGTMDEPGIFPKEAADVAMQAIKDGVARVTDLTWQQVYDIAEHDIKEARESAQLLQDSKHIVDFPQETLNECLAYAINKVTGK
notes: Entamoeba histolytica malic enzyme, gene PCR-amplified from genomic DNA with primers from the ATG start codon to the stop codon; cloned into pQE30; Homodimer with two interlocked (knotted) protomers; also called EhME; rEhME; source: E. coli M15 (pQE30), purified (Ni-NTA, Superdex 200 gel exclusion chromatography)
Km [2]: 46.67 ± 6.0 µM
kcat [2]: 14.57 s⁻¹
Km [3]: 570 ± 80 µM
kcat [3]: 41.7 s⁻¹
stoichiometry N [4]: 2
